The data set concerns the target CCHFV nucleocapsid protein (N protein) (Crimean-Congo hemorrhagic fever virus (strain 10200?)) (UniProt P89522). Put plainly: filter binding.

pKd: −log10 of the molar value.

Sequence of UniProt P89522 (P89522 whole entry): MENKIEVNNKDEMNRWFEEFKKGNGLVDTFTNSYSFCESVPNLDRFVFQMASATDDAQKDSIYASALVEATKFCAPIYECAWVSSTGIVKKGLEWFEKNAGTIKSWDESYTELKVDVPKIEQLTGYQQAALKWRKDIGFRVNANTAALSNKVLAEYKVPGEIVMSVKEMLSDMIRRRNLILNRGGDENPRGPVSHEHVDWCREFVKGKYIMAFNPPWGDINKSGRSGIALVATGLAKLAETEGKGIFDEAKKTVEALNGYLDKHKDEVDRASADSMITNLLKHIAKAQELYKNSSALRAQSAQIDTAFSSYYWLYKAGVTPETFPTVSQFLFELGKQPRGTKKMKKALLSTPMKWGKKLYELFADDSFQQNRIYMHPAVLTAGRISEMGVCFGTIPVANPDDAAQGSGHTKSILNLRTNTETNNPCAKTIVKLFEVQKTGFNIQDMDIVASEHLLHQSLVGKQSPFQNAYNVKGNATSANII

Broadly, the pKd is the negative decadic logarithm of the Kd, by convention in mol/L. Read a low pKd as a high Kd. “Luc mRNA-1 (WT S-segment 5' UTR + luciferase ORF + truncated S 3' UTR)”: the negative logarithm of the Kd (pKd) is 7.38.

The record behind these values is publication PMC12172977.
